# Laboratory results: patent US20050137135A1 (priority 2002, published 2005)
# Entries after “also recorded” stand apart in the source; their conditions may differ. Ends that are not written are not given here.
# T1: rat pancreatic islet (wild type) GIP-receptor stably expressed on CHO-K1 cells (rat) (UniProt P43219)
# T1 sequence (looked up): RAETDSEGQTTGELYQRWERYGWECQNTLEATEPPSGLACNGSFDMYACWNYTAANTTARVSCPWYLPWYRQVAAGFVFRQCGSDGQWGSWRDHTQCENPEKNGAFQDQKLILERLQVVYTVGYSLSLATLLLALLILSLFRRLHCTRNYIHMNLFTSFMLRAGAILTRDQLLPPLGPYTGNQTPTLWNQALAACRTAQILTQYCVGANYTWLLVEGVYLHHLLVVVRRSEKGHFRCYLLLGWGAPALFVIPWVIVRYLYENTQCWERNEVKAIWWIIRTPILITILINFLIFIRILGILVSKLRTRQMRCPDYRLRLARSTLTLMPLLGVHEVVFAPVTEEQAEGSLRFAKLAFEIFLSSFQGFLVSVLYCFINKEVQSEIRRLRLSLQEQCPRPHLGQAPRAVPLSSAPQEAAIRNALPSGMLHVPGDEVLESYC
# T2: rat pancreatic islet (wild type) GIP-receptor (Rattus norvegicus, UniProt P43219)
# T2 construct: expressed in transfected cells; host or cells: CHO-K1 (Chinese hamster ovary)
# T2 sequence (P43219 19-455): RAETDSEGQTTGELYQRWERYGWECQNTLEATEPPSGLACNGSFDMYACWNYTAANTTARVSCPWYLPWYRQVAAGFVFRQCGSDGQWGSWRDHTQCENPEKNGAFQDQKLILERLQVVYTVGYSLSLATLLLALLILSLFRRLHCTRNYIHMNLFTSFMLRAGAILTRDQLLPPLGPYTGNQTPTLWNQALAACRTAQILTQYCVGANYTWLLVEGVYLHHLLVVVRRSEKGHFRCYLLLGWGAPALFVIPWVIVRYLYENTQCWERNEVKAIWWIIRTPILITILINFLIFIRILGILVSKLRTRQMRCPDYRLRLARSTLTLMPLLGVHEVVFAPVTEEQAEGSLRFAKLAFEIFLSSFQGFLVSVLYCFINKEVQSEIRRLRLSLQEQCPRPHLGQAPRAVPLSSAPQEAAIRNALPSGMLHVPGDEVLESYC
# T3: rat pancreatic islet (wild type) GIP-receptor stably expressed on CHO-K1 cells (rat, UniProt P43219 19-455)
# T3 sequence (looked up): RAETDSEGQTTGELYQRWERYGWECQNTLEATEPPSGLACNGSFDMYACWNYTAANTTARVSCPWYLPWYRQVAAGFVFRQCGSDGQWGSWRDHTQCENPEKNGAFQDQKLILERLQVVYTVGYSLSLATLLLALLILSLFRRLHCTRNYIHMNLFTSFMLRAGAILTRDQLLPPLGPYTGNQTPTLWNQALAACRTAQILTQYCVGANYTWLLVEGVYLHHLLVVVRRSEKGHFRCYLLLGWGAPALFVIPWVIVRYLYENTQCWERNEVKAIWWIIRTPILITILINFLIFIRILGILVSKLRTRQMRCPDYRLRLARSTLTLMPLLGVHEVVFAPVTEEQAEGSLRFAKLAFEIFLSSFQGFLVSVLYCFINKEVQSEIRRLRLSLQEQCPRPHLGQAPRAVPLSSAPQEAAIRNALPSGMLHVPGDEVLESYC
# Assays:
# [1] = tested on: caspase-3 activity in INS-1 (832/13) cells; assay: Caspase-3 activity induced by glucose deprivation; assay type: cell-based; details: 6 h; 100 nM GIP, 10 µM forskolin
# Protocol: INS-1 cells (clone 832/13) seeded into 6-well plates were serum starved for 12-24 h and subjected to glucose deprivation (RPMI with 0.1% BSA) or treatment with 2 mM streptozotocin (STZ). […] Following treatment, caspase-3 activity was determined after 2, 6, or 24 h according to the manufacturers' protocol (Molecular Probes, Eugene, Oreg., USA). Caspase-3 activity/well was corrected for total protein content using the BCA protein assay (Pierce, Roxford, II, USA).
# [2] = tested on: INS-1 (832/13) cells; assay: Cell survival during glucose deprivation (CYQUANT); assay type: cell-based; details: inhibitor added 15 min prior to final 24 h culture, 100 nM GIP
# Protocol: (§1) Cell passages 45-60 were used.
# Cells were seeded into 96-well plates (5×10^4 cells/well) prior to experimentation. […] Cells were quantified using the CYQUANT™ assay system (Molecular Probes, Eugene, Oreg., USA) according to the manufacturers' protocol.
# Cell survival was assessed in the presence of prolonged glucose deprivation.
# [3] = tested on: INS-1 (832/13) cells; assay: Glucose dependent β-cell proliferation (CYQUANT cell quantification); assay type: cell-based
# Protocol: as §1
# Cells were seeded into 96-well plates (5×10^4 cells/well) prior to experimentation. […] Thereafter, cells were washed with KRBH (115 mM NaCl, 4.7 mM KCl, 1.2 mM KH2PO4, 10 mM NaHCO3, 1.28 mM CaCl2, 1.2 mM MgSO4 containing 10 mM HEPES and 0.1% bovine serum albumin, pH 7.4) and frozen at −70° C. until assayed. Cells were quantified using the CYQUANT™ assay system (Molecular Probes, Eugene, Oreg., USA) according to the manufacturers' protocol. Final cell numbers were always greater than the initial number plated in assessing cellular proliferation.
# [4] = target: T1, rat pancreatic islet (wild type) GIP-receptor stably expressed on CHO-K1 cells (rat); assay: displacement of 125I-GIP from intact CHO-K1 cells expressing rat GIP receptor, 10 µM peptide
# [5] = target: T1, rat pancreatic islet (wild type) GIP-receptor stably expressed on CHO-K1 cells (rat); assay: cell-based or functional assay
# [6] = target: T1, rat pancreatic islet (wild type) GIP-receptor stably expressed on CHO-K1 cells (rat); assay: competition with 125I-GIP on intact CHO-K1 cells expressing rat GIP receptor
# [7] = target: T2, rat pancreatic islet (wild type) GIP-receptor; assay: biochemical; assay type: binding; details: 10 μM peptide, 125I-GIP
# [8] = target: T4, DPIV (dipeptidyl peptidase IV) (Sus scrofa, UniProt P22411); assay: Determination of DPIV resistance by MALDI-TOF mass spectrometry; assay type: in vitro ADME; details: purified kidney DPIV, 0.04 M Tris buffer pH 7.6, up to 24 h, MALDI-TOF MS; read-out: half life after incubation with DP IV
# T4 construct: The hydrolysis of peptide analogues by purified kidney DPIV was studied as described previously [12]; from tissue; host or cells: kidney
# T4 sequence (P22411 whole entry): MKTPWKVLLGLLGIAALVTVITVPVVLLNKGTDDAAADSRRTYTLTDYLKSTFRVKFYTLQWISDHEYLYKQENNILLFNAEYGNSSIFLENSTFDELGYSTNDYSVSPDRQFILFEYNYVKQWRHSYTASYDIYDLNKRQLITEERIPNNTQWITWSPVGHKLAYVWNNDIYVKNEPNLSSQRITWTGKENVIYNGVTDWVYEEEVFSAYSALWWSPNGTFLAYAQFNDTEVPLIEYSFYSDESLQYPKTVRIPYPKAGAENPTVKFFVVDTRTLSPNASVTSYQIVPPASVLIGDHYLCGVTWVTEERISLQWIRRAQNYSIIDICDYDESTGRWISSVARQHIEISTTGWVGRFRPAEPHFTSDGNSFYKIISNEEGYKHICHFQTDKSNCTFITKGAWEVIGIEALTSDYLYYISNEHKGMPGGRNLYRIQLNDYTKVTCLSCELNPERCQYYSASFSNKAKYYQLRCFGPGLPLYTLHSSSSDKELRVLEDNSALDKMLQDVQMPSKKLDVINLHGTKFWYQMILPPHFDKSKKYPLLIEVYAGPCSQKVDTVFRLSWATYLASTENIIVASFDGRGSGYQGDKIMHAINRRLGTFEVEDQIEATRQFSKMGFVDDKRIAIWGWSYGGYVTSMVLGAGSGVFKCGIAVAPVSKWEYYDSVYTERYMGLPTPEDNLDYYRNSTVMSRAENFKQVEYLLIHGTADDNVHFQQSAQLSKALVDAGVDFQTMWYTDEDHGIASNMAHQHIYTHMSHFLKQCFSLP
# Protocol: The hydrolysis of peptide analogues by purified kidney DPIV was studied as described previously. […] Samples were removed from the incubation mixture and prepared for MALDI-TOF mass spectrometry, as described in Pauly, […]., Pederson, R. A., and Demuth, H. U.
# [9] = target: T2, rat pancreatic islet (wild type) GIP-receptor; assay: cAMP production in CHO-K1 cells expressing the GIP-receptor (wtGIP-R1 cells); assay type: cell-based; details: basal cyclic AMP = 2.737 ± 0.079 fmol/1000 cells; for cAMP Production (Fold Basal) 10 μM: 10 μM peptide
# Protocol: Cells were cultured in DMEM/F12, supplemented with 10% newborn calf serum, 50 units/ml penicillin G, and 50 μg/ml streptomycin (Culture media and antibiotics from Gibco BRL, Life Technologies). Cells were grown in 75 cm^2 flasks until 80-90% confluent, when they were split and seeded onto 24 well plates at a density of 50,000 cells/well. Experiments were carried out 48 h later.
# Cells were extracted with 70% ethanol and cAMP levels measured by radioimmunoassay (Biomedical Technologies, Stoughton, Mass.). Data are expressed as fmol/1000 cells or % maximal GIP1-42-stimulated cAMP production (inhibition experiments).
# [10] = target: T3, rat pancreatic islet (wild type) …; assay: cell-based or functional assay
# [11] = target: T3, rat pancreatic islet (wild type) …; assay: displacement of 125I-GIP from intact CHO-K1 cells expressing rat GIP receptor, 10 µM peptide
# Protocol: (§2) Cells were cultured in DMEM/F12, supplemented with 10% newborn calf serum, 50 units/ml penicillin G, and 50 μg/ml streptomycin (Culture media and antibiotics from Gibco BRL, Life Technologies). Cells were grown in 75 cm² flasks until 80-90% confluent, when they were split and seeded onto 24 well plates at a density of 50,000 cells/well. Experiments were carried out 48 h later.
# (§3) Binding studies using ¹²⁵I-labeled spGIP₁₋₄₂, purified by high performance liquid chromatography (HPLC), were performed essentially as described previously-[21]. wtGIP-R1 Cells (1-5×10⁵/well) were washed twice at 4° C. in binding buffer (BB), consisting of DMEM/F12 (GIBCO), 15 mM HEPES, 0.1% bovine serum albumin (BSA), 1% Trasylol (aprotinin; Bayer), pH 7.4. They were incubated for 12-16 h at 4° C. with ¹²⁵I-spGIP (50,000 cpm) in the presence or absence of unlabeled GIP₁₋₄₂ or analogue. Following incubation, cells were washed twice with ice cold buffer, solubilized with 0.1 M NaOH (1 ml), and transferred to culture tubes for counting of cell-associated radioactivity. Nonspecific binding was defined as that measured in the presence of 1 μM GIP₁₋₄₂ or GIP₁₋₃₀, and specific binding expressed as % of binding in the absence of competitor (% B/Bo).
# [12] = target: T3, rat pancreatic islet (wild type) …; assay: competition with 125I-GIP on intact CHO-K1 cells expressing rat GIP receptor
# Protocol: as §2, §3
molecule,measurement,setting,value
CC(=O)N[C@@H](CC(=O)O)C(=O)N[C@@H](CCC(=O)O)C(=O)N[C@H](C(=O)N[C@H](C=O)CC(=O)O)C(C)C [Ac-DEVD-CHO],0 mM glucose induced caspase-3 activity,[1],completely blocked low glucose activation
O=S(=O)(NCCNC/C=C/c1ccc(Br)cc1)c1cccc2cnccc12 [H89],effect of protein kinase inhibitor on GIP-mediated cell survival,[2],lack of effect; also recorded: unable to reverse
COc1cccc(-c2cc(=O)c3ccccc3o2)c1N [PD98059],effect of protein kinase inhibitor on GIP-mediated cell survival,[2],Neither of the Mek1/2 inhibitors PD98059 (50 and 100 μM) nor U0126 (10 μM) blocked
Oc1ccc(-c2nc(-c3ccncc3)c(-c3ccc(F)cc3)[nH]2)cc1 [SB202190],effect of protein kinase inhibitor on GIP-mediated cell survival,[2],influenced GIP-mediated cell survival
N#CC(=C(/N)Sc1ccccc1N)/C(C#N)=C(\N)Sc1ccccc1N [U0126],effect of protein kinase inhibitor on GIP-mediated cell survival,[2],Neither of the Mek1/2 inhibitors PD98059 (50 and 100 μM) nor U0126 (10 μM) blocked
"GH: GH, comparator for cell growth in INS-1 cells","cell proliferation, % of growth in the presence of 5.5 mM glucose","[3]; 11 mM glucose, 10 nM, FIG. 15A",158±9%
GIP 1-7NH2 (from UniProt P09681 52-58) (peptide),% Displacement at 10 µM,[4],-6.1%
GIP 1-15OH (from UniProt P09681 52-66) (peptide),% Displacement at 10 µM,[4],-3.1%
GIP 15-42OH (peptide),cAMP Production (Fold Basal) at 10 µM,[5],1.02 fold basal
same,cAMP Production (Fold Basal) at 20 µM,[5],1.01 fold basal
same,% Displacement at 10 µM,[4],83.3%
same,IC50,[6],1.27 µM
"ISDYSIAMDKIRQQDFVNWLLAQK-NH2 [GIP7-30a, reference compound]",Receptor Binding % Displacement at 10 μM,[7],99.3 ± 1.0%
same,half-life,[8],2.17 ± 0.177 h
same,cAMP Production (Fold Basal) 10 μM,[9],0.89 ± 0.06 Fold Basal
same,cAMP Production (Fold Basal) 20 μM,[9]; 20 μM peptide,0.85 ± 0.03 Fold Basal
"YAEGTFISDYSIAMDKIRQQDFVNWLLAQK-NH2 [GIP1-30a, reference compound]",Receptor Binding % Displacement at 10 μM,[7],99.8 ± 1.2%
same,half-life,[8],< 0.25 h
same,cAMP Production (Fold Basal) 10 μM,[9],108 ± 12 Fold Basal
glucagon-like peptide-17-36 [GLP-1],"cell growth, % of that measured in the presence of 5.5 mM glucose","[3]; separate experiment, 100 nM, n=4",129±4%
"YAEGTFISDYSIA-NH2 (peptide, UniProt P09681 52-64, looked up, range 1-13) [GIP 1-13NH2]",cAMP Production (Fold Basal) at 10 µM,[10],6.51 fold basal
same,cAMP Production (Fold Basal) at 20 µM,[10],15.7 fold basal
same,% Displacement at 10 µM,[11],5%
"IRQQDFVNWLLAQK-NH2 (peptide, UniProt P01281 17-30, looked up, range 17-30; also called GIP17-30a) [GIP 17-30NH2]",cAMP Production (Fold Basal) at 10 µM,[10],1.13 fold basal
same,cAMP Production (Fold Basal) at 20 µM,[10],1.12 fold basal
same,IC50,[12],1.54 µM
same,% Displacement at 10 µM,[11],81.9%
"YAEGTFISDYSIAM-OH (peptide, UniProt P09681 52-65, looked up, range 1-14; free acid form; also called native GIP (1-14)) [GIP 1-14OH]",cAMP Production (Fold Basal) at 10 µM,[10],88.9 fold basal
same,cAMP Production (Fold Basal) at 20 µM,[10],85.2 fold basal
same,% Displacement at 10 µM,[11],51.3%
"DKIRQQDFVNWLLAQK-NH2 (peptide, UniProt P01281 15-30, looked up, range 15-30; also called GIP15-30a) [GIP 15-30NH2]",cAMP Production (Fold Basal) at 10 µM,[10],1.24 fold basal
same,cAMP Production (Fold Basal) at 20 µM,[10],1.01 fold basal
same,IC50,[12],1.4 µM
same,% Displacement at 10 µM,[11],82.7%
"YAEGTFISDYSIA-OH (peptide, UniProt P09681 52-64, looked up) [GIP 1-13OH]",cAMP Production (Fold Basal) at 10 µM,[5],1.03 fold basal
same,cAMP Production (Fold Basal) at 20 µM,[5],1.15 fold basal
same,% Displacement at 10 µM,[4],-0.2%
"QQDFVNWLLAQK-NH2 (peptide, UniProt P09681 70-81, looked up, range 19-30; also called GIP19-30a) [GIP 19-30NH2]",cAMP Production (Fold Basal) at 10 µM,[10],20.1 fold basal
same,cAMP Production (Fold Basal) at 20 µM,[10],45 fold basal
same,% Displacement at 10 µM,[11],52.3%
"YAEGTF-NH2 (peptide, UniProt P09681 52-57, looked up) [GIP 1-6NH2]",cAMP Production (Fold Basal) at 10 µM,[5],1.27 fold basal
same,cAMP Production (Fold Basal) at 20 µM,[5],1.08 fold basal
same,% Displacement at 10 µM,[4],-3.6%
"YAEGTFISDYSIAM-NH2 (peptide, UniProt P09681 52-65, looked up, range 1-14) [GIP 1-14NH2]",cAMP Production (Fold Basal) at 10 µM,[10],75.4 fold basal
same,cAMP Production (Fold Basal) at 20 µM,[10],88.3 fold basal
same,% Displacement at 10 µM,[11],27.9%
